Data on one molecule can be found in US20160145332A1 (MONASH UNIVERSITY, published 2016).

Assay [1] addresses T1, human IL-21 (human, UniProt Q9HBE4 25-162, limits assumed). Put plainly: cell-based or functional assay.
Assay [2] concerns the target T2, Peptide 4 of hIL-21 (P4, 23aa) (human).
T2 peptide: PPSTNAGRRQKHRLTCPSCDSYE
Nature of the assay: ELISA, biotinylated antibody on coated peptide. On the procedure: (§1) To detect epitopes of 2P2 and 3A3, peptides consisting of different regions of hIL-21 were synthesized commercially and coated on an ELISA plate, followed by blocking of non-specific binding sites with 3% BSA in PBS. Biotinylated 2P2 or 3A3 were then added to the wells and developed with Streptavidin-HRP and TMB substrates.
(§2) An ELISA assay was used to examine binding between antibodies 2P2 and 3A3 and a Streptavidin-HRP secondary only control to each of the peptides P1 to P5, hIL-21 and OVA peptide. […] Thus, the epitope recognized by antibody 2P2 comprised a minimal sequence of 9 mer to 15 mer, with the core sequence being […] (SEQ ID NO 23). Binding was stronger with the sequence CPSCD was also present and strongest binding was observed when the sequences IKKLK, CPSCD and […] were present.

Assay [3] concerns the target T3, Peptide 5 of hIL-21 (P5, 15aa) (human).
T3 peptide: PPSTNAGRRQKHRLT
Nature of the assay: ELISA, biotinylated antibody on coated peptide. On the procedure:
as §1, §2

For assay [4], the target named is T1, human IL-21. Put plainly: SPR (Bio-Rad XPR36), average of the five wells of Table 6; mean of the five single KDs, SD 0.74x10^-9. On the procedure: (§3) Surface Plasma Resonance binding kinetics assay were performed on a Bio-rad XPR36 system by the direct amine coupling method. Briefly, a flow of mixture of EDC [N-ethyl-N′-(3-[…]-propyl)carbodiimide] and NHS (N-hydroxysuccinimide) was used to activate the cell surface of a GLC sensor chip before 25 μg/ml anti-IL-21 mAb was flowed through, then a shot flow of ethanolamine was used to block the remaining active sites on the cell surface. Afterwards, serial diluted solutions of IL-21 from 0 to 40 nM were flown over the cell surface to bind to the immobilized anti-IL-21 mAb molecules. Binding kinetics were performed at 25° C. with a flow rate of 30 μL/min, association time of 3 min and dissociation time of 6 min. The buffer consisted of Hepes, NaCl, tween20, and 1 mg/mL BSA at pH 7.4. The flow cell regeneration buffer between cycles was 15 mM phosphoric acid. Double references were used to process the sensorgrams. The binding curves were globally fit to the 1:1 Langmuir binding model.

The target of assay [5] is T1, human IL-21. Nature of the assay: SPR (Bio-Rad XPR36), stated average of n=5 measurements; stated final affinity, average of n=5 (table 6). On the procedure: as §3
In a further assay the target is T4, P1.
T4 construct: also called Peptide 1 (P1, 30aa); peptide 1 of hIL-21
Nature of the assay: peptide ELISA: peptide coated on the plate, biotinylated antibody, Streptavidin-HRP, TMB, A450.

Another assay deals with T5, P2.
T5 construct: also called Peptide 2 (P2, 27aa); peptide 2 of hIL-21
T5 peptide: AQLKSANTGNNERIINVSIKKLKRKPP
Described as above.

Assay [6] deals with T6, Peptide 3 of hIL-21 (P3, 30aa) (human).
T6 peptide: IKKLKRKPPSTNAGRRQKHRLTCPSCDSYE
Put plainly: ELISA: Peptide 3 coated on the plate, biotinylated 2P2 alone or spiked with Peptide 3, Streptavidin-HRP, TMB, A450.

The target of a further assay is mIL21 (Mus musculus, UniProt Q9ES17). Put plainly: ELISA: mouse IL-21 coated on the plate, biotinylated 2P2 alone or spiked with Peptide 3, Streptavidin-HRP, TMB, A450.

T1 sequence (Q9HBE4 25-162 limits assumed): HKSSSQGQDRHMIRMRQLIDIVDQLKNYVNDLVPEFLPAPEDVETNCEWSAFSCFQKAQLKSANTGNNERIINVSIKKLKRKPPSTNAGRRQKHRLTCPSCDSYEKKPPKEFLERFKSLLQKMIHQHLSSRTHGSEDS
T4 sequence (peptide, as listed by the source): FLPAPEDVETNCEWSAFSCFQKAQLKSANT

B1: monoclonal antibody 2P2 (antibody, V domains shown)
VH: EVQLQQSGADLVRSGASVKLSCTASGFNIKDYYIHWVKQRPEQGLELIGWIDPESGDTEYAPKFQVKATMTADTSSNTAYLQLSSLTSEDTAVYYCNDGSGYWGQGTTLTVSS
VL: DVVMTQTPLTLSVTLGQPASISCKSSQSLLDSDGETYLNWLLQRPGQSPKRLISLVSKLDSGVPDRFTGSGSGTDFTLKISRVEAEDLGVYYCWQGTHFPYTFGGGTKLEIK
notes: It was biotinylated in the ELISA assays and unlabelled, amine-coupled to the chip, in SPR; also called mAb 2P2; mAB 2P2
Turning to B1, the “bioactivity of human IL-21 on Ba/F3-hIL-21R cell proliferation at 10 µg/ml 2P2” value in the assay with human IL-21 [1] was greater than 10 fold. For the same molecule, in the assay with human IL-21 [1], the “hIL-21 bioactivity on human CD8 T cell activation (granzyme B and perforin)” value is greater than 10 fold. Further, the “hIL-21 mediated human B cell proliferation (CFSE dilution); 5 ng/ml hIL-21 plus 1 µg/ml 2P2 compared with 100 ng/ml hIL-21” value with human IL-21 [1] was roughly 20 fold. For the same molecule, the binding result is on record as “binds” in assay [2]; “binds” in assay [3]; “no binding” with P1; “no binding” with P2; “binds” in [6]; “no binding” with mIL21. Also, the Kd in the assay with human IL-21 [4] was 3.33 nM; with human IL-21 [5] it was 3 nM.
